Test results from IntAct's records for PubMed 28712572.

Biological target: gbrap_human GABARAP (UniProt O95166)
Sequence (O95166 whole entry): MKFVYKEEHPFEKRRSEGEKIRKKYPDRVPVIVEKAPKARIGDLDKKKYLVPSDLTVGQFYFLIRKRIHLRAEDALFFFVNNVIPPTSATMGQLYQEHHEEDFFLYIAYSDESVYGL

Substance	effect of a mutation on the interaction
Pericentriolar material 1 protein (Homo sapiens), Q15154 K1972N	with no effect
Pericentriolar material 1 protein (Homo sapiens), Q15154 K1972P	with no effect
Pericentriolar material 1 protein (Homo sapiens), Q15154 K1972Q	with no effect
Pericentriolar material 1 protein (Homo sapiens), Q15154 K1972R	with no effect
Pericentriolar material 1 protein (Homo sapiens), Q15154 K1972S	with no effect
Pericentriolar material 1 protein (Homo sapiens), Q15154 K1972T	with no effect
Pericentriolar material 1 protein (Homo sapiens), Q15154 K1972V	with no effect
Pericentriolar material 1 protein (Homo sapiens), Q15154 K1972W	with no effect
Pericentriolar material 1 protein (Homo sapiens), Q15154 K1972Y	with no effect
Pericentriolar material 1 protein (Homo sapiens), Q15154 L1969A	with no effect
Pericentriolar material 1 protein (Homo sapiens), Q15154 L1969C	with no effect
Pericentriolar material 1 protein (Homo sapiens), Q15154 L1969D	with no effect
Pericentriolar material 1 protein (Homo sapiens), Q15154 L1969E	with no effect
Pericentriolar material 1 protein (Homo sapiens), Q15154 L1969F	with no effect
Pericentriolar material 1 protein (Homo sapiens), Q15154 L1969G	with no effect
Pericentriolar material 1 protein (Homo sapiens), Q15154 L1969H	with no effect
Pericentriolar material 1 protein (Homo sapiens), Q15154 L1969I	with no effect
Pericentriolar material 1 protein (Homo sapiens), Q15154 L1969K	with no effect
Pericentriolar material 1 protein (Homo sapiens), Q15154 L1969M	with no effect
Pericentriolar material 1 protein (Homo sapiens), Q15154 L1969N	with no effect
Pericentriolar material 1 protein (Homo sapiens), Q15154 L1969P	with no effect
Pericentriolar material 1 protein (Homo sapiens), Q15154 L1969Q	with no effect
Pericentriolar material 1 protein (Homo sapiens), Q15154 L1969R	with no effect
Pericentriolar material 1 protein (Homo sapiens), Q15154 L1969S	with no effect

Substance	effect of a mutation on the interaction
Pericentriolar material 1 protein (Homo sapiens), Q15154 L1969T	disrupting interaction strength
Pericentriolar material 1 protein (Homo sapiens), Q15154 L1969V	with no effect
Pericentriolar material 1 protein (Homo sapiens), Q15154 L1969W	with no effect
Pericentriolar material 1 protein (Homo sapiens), Q15154 L1969Y	with no effect
Pericentriolar material 1 protein (Homo sapiens), Q15154 L1971A	with no effect
Pericentriolar material 1 protein (Homo sapiens), Q15154 L1971C	with no effect
Pericentriolar material 1 protein (Homo sapiens), Q15154 L1971D	with no effect
Pericentriolar material 1 protein (Homo sapiens), Q15154 L1971E	with no effect
Pericentriolar material 1 protein (Homo sapiens), Q15154 L1971F	with no effect
Pericentriolar material 1 protein (Homo sapiens), Q15154 L1971G	with no effect
Pericentriolar material 1 protein (Homo sapiens), Q15154 L1971H	with no effect
Pericentriolar material 1 protein (Homo sapiens), Q15154 L1971I	with no effect
Pericentriolar material 1 protein (Homo sapiens), Q15154 L1971K	with no effect
Pericentriolar material 1 protein (Homo sapiens), Q15154 L1971M	with no effect
Pericentriolar material 1 protein (Homo sapiens), Q15154 L1971N	with no effect
Pericentriolar material 1 protein (Homo sapiens), Q15154 L1971P	with no effect
Pericentriolar material 1 protein (Homo sapiens), Q15154 L1971Q	with no effect
Pericentriolar material 1 protein (Homo sapiens), Q15154 L1971R	with no effect
Pericentriolar material 1 protein (Homo sapiens), Q15154 L1971S	with no effect
Pericentriolar material 1 protein (Homo sapiens), Q15154 L1971T	with no effect
Pericentriolar material 1 protein (Homo sapiens), Q15154 L1971V	with no effect
Pericentriolar material 1 protein (Homo sapiens), Q15154 L1971W	with no effect
Pericentriolar material 1 protein (Homo sapiens), Q15154 L1971Y	with no effect
Pericentriolar material 1 protein (Homo sapiens), Q15154 L1973A	with no effect

Substance	effect of a mutation on the interaction
Pericentriolar material 1 protein (Homo sapiens), Q15154 L1973C	with no effect
Pericentriolar material 1 protein (Homo sapiens), Q15154 L1973D	with no effect
Pericentriolar material 1 protein (Homo sapiens), Q15154 L1973E	with no effect
Pericentriolar material 1 protein (Homo sapiens), Q15154 L1973F	with no effect
Pericentriolar material 1 protein (Homo sapiens), Q15154 L1973G	with no effect
Pericentriolar material 1 protein (Homo sapiens), Q15154 L1973H	with no effect
Pericentriolar material 1 protein (Homo sapiens), Q15154 L1973I	with no effect
Pericentriolar material 1 protein (Homo sapiens), Q15154 L1973K	with no effect
Pericentriolar material 1 protein (Homo sapiens), Q15154 L1973M	with no effect
Pericentriolar material 1 protein (Homo sapiens), Q15154 L1973N	with no effect
Pericentriolar material 1 protein (Homo sapiens), Q15154 L1973P	with no effect
Pericentriolar material 1 protein (Homo sapiens), Q15154 L1973Q	with no effect
Pericentriolar material 1 protein (Homo sapiens), Q15154 L1973R	with no effect
Pericentriolar material 1 protein (Homo sapiens), Q15154 L1973S	with no effect
Pericentriolar material 1 protein (Homo sapiens), Q15154 L1973T	with no effect
Pericentriolar material 1 protein (Homo sapiens), Q15154 L1973V	with no effect
Pericentriolar material 1 protein (Homo sapiens), Q15154 L1973W	with no effect
Pericentriolar material 1 protein (Homo sapiens), Q15154 L1973Y	with no effect
Pericentriolar material 1 protein (Homo sapiens), Q15154 N1953A	with no effect
Pericentriolar material 1 protein (Homo sapiens), Q15154 N1953C	with no effect
Pericentriolar material 1 protein (Homo sapiens), Q15154 N1953D	with no effect
Pericentriolar material 1 protein (Homo sapiens), Q15154 N1953E	with no effect
Pericentriolar material 1 protein (Homo sapiens), Q15154 N1953F	with no effect
